Measurements reported in patent publication US20170183404A1.

Biological target: Purified Mor1 (Example 9) (Mus musculus (Mouse)) (UniProt P42866)
Assay: cell-based or functional assay

Chain of Heterotrimeric Gi (P63096 2-354): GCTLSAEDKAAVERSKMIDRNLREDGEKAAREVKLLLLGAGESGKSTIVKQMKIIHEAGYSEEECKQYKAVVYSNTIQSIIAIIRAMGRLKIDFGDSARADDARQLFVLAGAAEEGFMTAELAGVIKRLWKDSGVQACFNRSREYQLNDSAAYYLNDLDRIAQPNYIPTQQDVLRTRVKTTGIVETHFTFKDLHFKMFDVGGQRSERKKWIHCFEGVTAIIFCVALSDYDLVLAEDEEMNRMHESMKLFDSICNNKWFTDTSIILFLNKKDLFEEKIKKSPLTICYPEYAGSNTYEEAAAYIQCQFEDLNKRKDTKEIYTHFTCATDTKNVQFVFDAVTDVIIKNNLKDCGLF
Chain of Heterotrimeric Gi (P62873 2-340): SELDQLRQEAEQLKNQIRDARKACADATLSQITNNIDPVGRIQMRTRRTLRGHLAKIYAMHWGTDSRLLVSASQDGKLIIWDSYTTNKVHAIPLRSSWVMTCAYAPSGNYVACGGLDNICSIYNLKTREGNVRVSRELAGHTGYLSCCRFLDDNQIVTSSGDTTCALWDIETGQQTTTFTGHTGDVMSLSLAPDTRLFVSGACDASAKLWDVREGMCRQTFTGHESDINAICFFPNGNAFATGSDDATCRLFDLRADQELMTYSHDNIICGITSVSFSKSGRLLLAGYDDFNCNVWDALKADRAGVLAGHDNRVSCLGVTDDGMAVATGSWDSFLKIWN

Heterotrimeric Gi (from UniProt P63096 2-354; P62873 2-340)
enhancement of agonist (BU72) affinity for Mor1 in HDL particles: 220 fold
